B1: Replicative helicase loader DnaC (Escherichia coli (strain K12)), P0AEF0 (parent)
chain: MKNVGDLMQRLQKMMPAHIKPAFKTGEELLAWQKEQGAIRSAALERENRAMKMQRTFNRSGIRPLHQNCSFENYRVECEGQMNALSKARQYVEEFDGNIASFIFSGKPGTGKNHLAAAICNELLLRGKSVLIITVADIMSAMKDTFRNSGTSEEQLLNDLSNVDLLVIDEIGVQTESKYEKVIINQIVDRRSSSKRPTGMLTNSNMEEMTKLLGERVMDRMRLGNSLWVIFNWDSYRSRVTGKEY

Variants of: B1
Conditions: with dnab_ecoli dnaB

| Variant | effect of a mutation on the interaction |
| --- | --- |
| MKNVGDLMQRQQKMMPAHIKPAFKTGEELLAWQKEQGAIRSAALERENRAMKMQRTFNRSGIRPLHQNCSFENYRVECEGQMNALSKARQYVEEFDGNIASFIFSGKPGTGKNHLAAAICNELLLRGKSVLIITVADIMSAMKDTFRNSGTSEEQLLNDLSNVDLLVIDEIGVQTESKYEKVIINQIVDRRSSSKRPTGMLTNSNMEEMTKLLGERVMDRMRLGNSLWVIFNWDSYRSRVTGKEY [L11Q] | disrupting interaction |

From IntAct's records for PubMed 20129058
